Test results as given in publication PMC12391199.

How the values were obtained:
[1] = molecular target: portal protein gp4 of bacteriophage Epsilon15 (portal complex) (bacteriophage Epsilon15); assay: cryo-EM structure; asymmetric single-particle reconstruction of whole ϵ15 virions (iodixanol-purified, in PBS, graphene oxide-coated grids, Titan Krios 300 kV, RELION 2.0), with focused refinement of the portal at ~7 Å
[2] = molecular target: tail hub of bacteriophage Epsilon15 (bacteriophage Epsilon15); assay: as above

## portal protein gp4 of bacteriophage Epsilon15 (portal complex) (natural protein)
[1]
  stoichiometry N: 12

## tail hub of bacteriophage Epsilon15 (complex)
[2]
  stoichiometry N: 6
